Source: the supplement of paper PMC9170038

Test system: MS2 coat protein
Test: apparent KD of MS2 coat protein; designed switch direction (-1 OFF switch, 1 ON switch): -1; higher = weaker reporter binding
In short: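 Stalled E. coli RNA polymerase transcribed designed RNA switches on Illumina chips, which were then titrated with SNAP-549-labelled MS2 coat protein, doubling from 0.7 or 1.5 nM to 3 µM. Steps lasted from 0.8–1.5 h at the lowest concentration to 10–20 min at the highest. The apparent KD is each design's median over clusters of curve-fitted normalised fluorescence.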

[1] = input ligand: microRNA oligo, concentration not stated
[2] = Eterna round: R95, input ligand: FMN 200 uM
[3] = Eterna round: R95, input ligand: microRNA oligo, concentration not stated
[4] = Eterna round: R95, input ligand: none

Sequence: UUGUUAUAUGUAGGAUAUGCGUGUUAUUGUUAGGCAGAAGGACAUGAGGAUCACCCAUGUAUGUUGUUGUUAUAUAUUAUAUAU [Title] (Eterna round: R96, puzzle: Exclusion NG 1)
- apparent KD of MS2 coat protein (input ligand: FMN 200 uM): 41.9 nM
- apparent KD of MS2 coat protein [1]: 21.2 nM
- apparent KD of MS2 coat protein (input ligand: none): 34.4 nM

Sequence: AAUUGCUAGCCGAUCCUCCACAUGAGGAUCACCCAUGUGCUUGUCUUGUAAUGUACUAUCACGAAAGUGAUAGUACA [Sensor v3, turn-off variant 1 (MOD of Eli's v1-59 v.5)] (puzzle: Sensor v3, turn-off variant 1)
- apparent KD of MS2 coat protein [2]: 44.7 nM
- apparent KD of MS2 coat protein [3]: 54.7 nM
- apparent KD of MS2 coat protein [4]: 43.2 nM

Sequence: UGUUCGUCAGGAUAUUCUACUUAUUACAUGAGGAUCACCCAUGUGUAUGUACAAGGGUGUGAAGAAGGGACUUGUU [LRO-Excl5-08-mod A17d by Omei] (Eterna round: R97, puzzle: Exclusion 5)
- apparent KD of MS2 coat protein (input ligand: FMN 200 uM): 245 nM
- apparent KD of MS2 coat protein (input ligand: none): 885 nM

Sequence: UUGAUUCAUUCCUCCAUAAACAUGAGGAUCACCCAUGUAAGUGAGGAUAUAGUUUGUUUAGUAUACUAGAAGGCACUUAGAUAU [JR_ExcNG3_Sub046] (Eterna round: R96, puzzle: Exclusion NG 3)
- apparent KD of MS2 coat protein (input ligand: FMN 200 uM): 12.7 nM
- apparent KD of MS2 coat protein [1]: 9.61 nM
- apparent KD of MS2 coat protein (input ligand: none): 12.6 nM

Sequence: CUAAAAGUCGAGGAUAUGCACCGUUUCGCUGACGCAGAAGGCGACACAUGAGGAUCACCCAUGUCGGUACGCGA [salish99_ex6_r004_456] (Eterna round: R97, puzzle: Exclusion 6)
- apparent KD of MS2 coat protein (input ligand: FMN 200 uM): 27.7 nM
- apparent KD of MS2 coat protein (input ligand: none): 23.5 nM

Sequence: AGCUGUGGCCGAGGAUAUGCUACUUCAAUAACCGAAAUAUAAUCGGACAUGAGGAUCACCCAUGUAGAGAAGGCGGUCUCAGCA [Eli eng2 - 085] (Eterna round: R96, puzzle: Exclusion NG 2)
- apparent KD of MS2 coat protein [1]: 10.3 nM

Sequence: UGUACGAUGCGUGCUGACAUGCGUCGUGCAGCAAGCUUUACAUGAGGAUCACCCAUGUCCUCACUUGCUCGUCUUGU (puzzle: Sensor v3, turn-off variant 2)
- apparent KD of MS2 coat protein [2]: 643 nM
- apparent KD of MS2 coat protein [3]: 21.3 nM
- apparent KD of MS2 coat protein [4]: 490 nM

Sequence: GCACGAAGUGUAGGAUAUCUGUGCGAUUAGCUCAGAGAAGGACACAUGAGGAUCACCCAUGUUUUCCACGGAUAGCAAACGUGC [Eli exng1 - 059] (Eterna round: R96, puzzle: Exclusion NG 1)
- apparent KD of MS2 coat protein (input ligand: FMN 200 uM): 21 nM
- apparent KD of MS2 coat protein [1]: 14.4 nM
- apparent KD of MS2 coat protein (input ligand: none): 19.6 nM

Sequence: UAAUACGAUGUCAGGAUAUGUAAGACACUUGUAACACAGAAGGGACAUGAGGAUCACCCAUGUAAGGGCUCUUC [Rimala] (puzzle: Brourd's mod of Exclusion 4)
- apparent KD of MS2 coat protein [2]: 51.4 nM
- apparent KD of MS2 coat protein [3]: 20.4 nM
- apparent KD of MS2 coat protein [4]: 22.6 nM

Sequence: GAGUGACAUGAGGAUCACCCAUGUGAGGAUAUCGGACGGACCAAAUUAACAAUAAAAGCGAGAAGGCACAUCGG [Exclusion 1 V12] (puzzle: Exclusion 1)
- apparent KD of MS2 coat protein [2]: 64.7 nM
- apparent KD of MS2 coat protein [3]: 57.6 nM
- apparent KD of MS2 coat protein [4]: 66.5 nM

Sequence: AGAGUGCUGCGAGGAUAUACAUGAGGAUCACCCAUGUGGAUCUGUGAGGCAAAGCCUCACAGGAUGUAGAAGGCGCAGUACUCA [Mat - Exclusion NG 2 - Mod of JL - D49] (Eterna round: R96, puzzle: Exclusion NG 2)
- apparent KD of MS2 coat protein (input ligand: FMN 200 uM): 156 nM
- apparent KD of MS2 coat protein [1]: 23.4 nM
- apparent KD of MS2 coat protein (input ligand: none): 28.9 nM

Sequence: GGGCCCGGAGGAUAUACAUGAGGAUCACCCAUGUAGCGCGCGCGUAUUUGUGUGUGUUGUAGAAGGCCGGGCCC [-36.6, -33.8 kcal, A 19%, 6-0] (Eterna round: R97, puzzle: Exclusion 3)
- apparent KD of MS2 coat protein (input ligand: FMN 200 uM): 57.9 nM
- apparent KD of MS2 coat protein (input ligand: none): 17.9 nM

Sequence: GCCUAACAUGAGGAUCACCCAUGUAAGGAUAUGAUUAGUCGUUUGUAAGCAGCGCGACUCAGAAGGUACUUGGG [Eternabot (L1) Solution 34] (Eterna round: R97, puzzle: Exclusion 1)
- apparent KD of MS2 coat protein (input ligand: FMN 200 uM): 72 nM
- apparent KD of MS2 coat protein (input ligand: none): 25.4 nM

Sequence: UAAAUGUGAGGAUAUCAGGUGUGCUAGCGAACUGGUACAUCUGAGAAGGCACAUGAGGAUCACCCAUGUUCCUU [Mat - Exclusion 4 - Mod of JL - D50] (puzzle: Exclusion 4)
- apparent KD of MS2 coat protein [3]: 16.2 nM

Sequence: AUCAAAUUAAAUACAGAUCACAUGAGGAUCACCCAUGUCGUACGAGUGCAGAUCUUUGAAGCUGGCUCGUCUAAGUG [Eternabot (L2) Solution 21] (Eterna round: R97, puzzle: Sensor, turn-off variant 1)
- apparent KD of MS2 coat protein (input ligand: FMN 200 uM): 154 nM
- apparent KD of MS2 coat protein (input ligand: none): 165 nM

Sequence: CGCCGAGUGUUAGGAUAUCACAAGCAUCAGCGGUGAGAAGGAACAUGAGGAUCACCCAUGUACUGUCCCAUAAGGACAGGUUUC [Geestiza] (Eterna round: R96, puzzle: Exclusion NG 1)
- apparent KD of MS2 coat protein (input ligand: FMN 200 uM): 82.7 nM
- apparent KD of MS2 coat protein [1]: 40.9 nM
- apparent KD of MS2 coat protein (input ligand: none): 60.8 nM

Sequence: GGGCCCGGUGUGAGGAUAUCGGGCCCGAAAGGGUUUGAGAAGGCACAUGAGGAUCACCCAUGUAAGCCGGGCCC [-41.1, -39 kcal, A 23%, 5b-0] (Eterna round: R97, puzzle: Brourd's mod of Exclusion 4)
- apparent KD of MS2 coat protein (input ligand: FMN 200 uM): 17.1 nM
- apparent KD of MS2 coat protein (input ligand: none): 15.3 nM

Sequence: CACGGGUAAGGAUAUACAAGUGAGAAAGGUAUGUGCAAAUAACAUGAGGAUCACCCAUGUAGAAGGUACGCCGG [Cearxeen] (puzzle: Exclusion 2)
- apparent KD of MS2 coat protein [2]: 27.1 nM
- apparent KD of MS2 coat protein [3]: 16.9 nM
- apparent KD of MS2 coat protein [4]: 14.9 nM

Sequence: GAAAAGGUAGGAUAUACGAUAAGAAAGGGUAGAGAAUAAACACAUGAGGAUCACCCAUGUAGAAGGACCAAAAG [salish99_ex2_r3_101] (puzzle: Exclusion 2)
- apparent KD of MS2 coat protein [2]: 148 nM
- apparent KD of MS2 coat protein [3]: 30 nM
- apparent KD of MS2 coat protein [4]: 26 nM

Sequence: CACCGUUAUGGAGGAUAUCGUACAUGAGGAUCACCCAUGUAAUAAAUGAGAAUUUCGGAUGUAUGCGAGAAGGCCAAAAUCGGC [Ostracism 43 - Jieux - Exclusion NG 2] (Eterna round: R96, puzzle: Exclusion NG 2)
- apparent KD of MS2 coat protein (input ligand: FMN 200 uM): 46.6 nM
- apparent KD of MS2 coat protein [1]: 26.9 nM
- apparent KD of MS2 coat protein (input ligand: none): 43.5 nM

Sequence: UAAAGUAUAUAGGAUAUCUAGCUGGUAACAGCUAGAGAAGGAUGUACAUGAGGAUCACCCAUGUAAAUCAGUGA [Ex6/14-A2] (Eterna round: R97, puzzle: Exclusion 6)
- apparent KD of MS2 coat protein (input ligand: FMN 200 uM): 23.3 nM
- apparent KD of MS2 coat protein (input ligand: none): 17.9 nM

Sequence: GUGAAGGUAGGAUAUACGAUAAUAUAGGGUAGAUAUAUAACACAUGAGGAUCACCCAUGUAGAAGGACCAAUUG [Mat - Exclusion 2 - Mod of my Tesla design - D59] (puzzle: Exclusion 2)
- apparent KD of MS2 coat protein [3]: 29.1 nM

Sequence: AUUUAGAGAGGAUAUAUAUUGUGAAACAUGAGGAUCACCCAUGUAAUAAUAUGGAUGUAAAUAGAAGGCUCAUUUU [Mat - Exclusion 5 - JL mod - D10] (puzzle: Exclusion 5)
- apparent KD of MS2 coat protein [2]: 40.2 nM
- apparent KD of MS2 coat protein [3]: 37.4 nM
- apparent KD of MS2 coat protein [4]: 41.8 nM

Sequence: AUAAUGUCAGGAUAUACAUGAGGAUCACCCAUGUUAGAAAGAGAAGAAGAGAAACUAUGUAGAAGGGACAAUAA [Hair Trigger] (puzzle: Exclusion 3)
- apparent KD of MS2 coat protein [2]: 43.7 nM
- apparent KD of MS2 coat protein [3]: 20.6 nM
- apparent KD of MS2 coat protein [4]: 29.1 nM

Sequence: AAGUACCGUCACGAAAGUGAUGGUACAACAAGCAUGUAAACAUGAGGAUCACCCAUGUCCUCAAAUGCUCGUCUUAU [Sensor 3 - 62] (puzzle: Sensor v3, turn-off variant 2)
- apparent KD of MS2 coat protein [2]: 732 nM
- apparent KD of MS2 coat protein [3]: 2020 nM
- apparent KD of MS2 coat protein [4]: 776 nM

Sequence: CAGUACUGAGGAUAUACAUGAGGAUCACCCAUGUGUUCCAGCUAGGAUACUAGCAAUGGAAGAAGGCAGUACUG [Mat - Exclusion 3 - Eli Mod - D1] (Eterna round: R97, puzzle: Exclusion 3)
- apparent KD of MS2 coat protein (input ligand: FMN 200 uM): 17.2 nM
- apparent KD of MS2 coat protein (input ligand: none): 16.8 nM

Sequence: UAAUAUCUGUAGGAUAUCAGUGGAAAACACGUAUGAGAAGGGCAGACAUGAGGAUCACCCAUGUAUAGGGUCCG [BotMod 7 - Jieux - Exclusion 6] (Eterna round: R97, puzzle: Exclusion 6)
- apparent KD of MS2 coat protein (input ligand: FMN 200 uM): 61.9 nM
- apparent KD of MS2 coat protein (input ligand: none): 20.9 nM

Sequence: CCAACCAGAGGAUAUGCGAAUAAAUAAAACUUUUUUUUUUAACAUGAGGAUCACCCAUGUAGAAGGCUGCAACC [Ex2 #39] (Eterna round: R97, puzzle: Exclusion 2)
- apparent KD of MS2 coat protein (input ligand: FMN 200 uM): 32 nM
- apparent KD of MS2 coat protein (input ligand: none): 34.8 nM

Sequence: AAGGUCAAGAAUGGAAAUUAAAUACAUGAGGAUCACCCAUGUCAGGAUAUCCAGUAGAGACCUAGGGAGAAGGGACAUGAAAAG [Esonanza] (Eterna round: R96, puzzle: Exclusion NG 3)
- apparent KD of MS2 coat protein (input ligand: FMN 200 uM): 16.1 nM
- apparent KD of MS2 coat protein [1]: 10.3 nM
- apparent KD of MS2 coat protein (input ligand: none): 14.7 nM

Sequence: GUCAUGUUAGGAUAUCUAACAUGUGACUUCGGUCACUGUCCAGAGAAGGAACAUGAGGAUCACCCAUGUUGGAC [Ex4-3: 56] (puzzle: Exclusion 4)
- apparent KD of MS2 coat protein [3]: 13 nM

Sequence: CAGUACUACAAGCUUAGGGACAUGAGGAUCACCCAUGUUCGUCUUAUUGAUCUAGGUACGCUGACGUACCUAGAUCU [JL-sv1-2.12 Brourd mod] (puzzle: Sensor v3, turn-off variant 1)
- apparent KD of MS2 coat protein [2]: 15.7 nM
- apparent KD of MS2 coat protein [3]: 29.9 nM
- apparent KD of MS2 coat protein [4]: 15 nM

Sequence: AGUGUGAGGCAGGAUAUGCAAUAUGUAAGUAAUGCAGAAGGGUCUACAUGAGGAUCACCCAUGUGUGCGGUUGA [Ex6 #10] (Eterna round: R97, puzzle: Exclusion 6)
- apparent KD of MS2 coat protein (input ligand: FMN 200 uM): 282 nM
- apparent KD of MS2 coat protein (input ligand: none): 192 nM

Sequence: UCGACUACAGUAGGAUAUGUAGGAUAUGUGGUUGAGGAUCACCCAACCACUUCAACGACAGAAGGACAGAAGGACUGACAACGU [pwkr exNG2 2xFMN 1xF5.3] (Eterna round: R96, puzzle: Exclusion NG 2)
- apparent KD of MS2 coat protein (input ligand: FMN 200 uM): 16.8 nM
- apparent KD of MS2 coat protein [1]: 14.8 nM
- apparent KD of MS2 coat protein (input ligand: none): 16.5 nM
